Columns and labels:
[1] = target: Cross-linked His-CAhex: disulfide-stabilized hexamer of 6-His-CA(A14C/E45C/W184A/M185A) (HIV-1); experiment: SPR; Reichert 4-SPR; cross-linked His-CAhex immobilised on an NTA chip via the C-terminal His-tag; peptides 3.9 μM to 2 mM; 0.01 M HEPES pH 7.4, 0.15 M NaCl, 0.05% v/v Surfactant P20; simple kinetic model
[2] = target: cross-linked His-CAhex, 6-His-CA(A14C/E45C/W184A/M185A) (HIV-1); experiment: SPR; Reichert 4-SPR; cross-linked His-CAhex immobilised on an NTA chip via the C-terminal His-tag; peptides 3.9 µM to 2 mM; 0.01 M HEPES pH 7.4, 0.15 M NaCl, 0.05% Surfactant P20; Scrubber 2.0, simple kinetic model

Row | Binder | Kd [1] | Kd [2]
1 | GPLLPGQSFGGPSVS [SEC24C_(228-242) 15-mer FG peptide] | 1070 µM | 
2 | NSPSGVFTFGANSST [NUP1531409-1423 peptide] |  | 131 µM
3 | GPLLPGQSFGGPSVS [SEC24C228-242 peptide] |  | 1070 µM
